Laboratory results from paper PMC9036094, “Antigen-derived peptides engage the ER stress sensor IRE1α to curb dendritic cell cross-presentation” (The Journal of Cell Biology, 2022).
“Also recorded” adds a separate entry of the source.

How the values were obtained:
[1] = test system: IRE1α in MyD88 KO Flt3L-derived BMDCs; experiment: IRE1α activation in MyD88 KO Flt3L-derived BMDCs (immunoblot); assay type: cell-based, mouse; details: ovalbumin 500 μg/ml or LPS 10 μg/ml, 4 h
Procedure: Figure S1. Antigen pulsing of BMDCs activates IRE1α. (A) BMDCs were treated with MG132 (5 μM) or ovalbumin (500 μg/ml) for indicated time points and analyzed by IB. (B) BMDCs were pulsed with ovalbumin (500 μg/ml) and G9668 (3 μM) for indicated time periods and analyzed by IB. (C) Molecular structure, potency, and kinase selectivity of G9668. (D) Schematic representation of G9668 interaction with 220 kinases at 1 μM. Size and color of circles represent interaction strength. Analysis was conducted by KinomeScan. (E) BMDCs were pulsed for 4 h with APC-tagged ovalbumin or soluble CD4-Fc protein (500 μg/ml) with amiloride (10 μM); uptake of protein was assayed by flow cytometry (n = 3). (F) WT or MyD88 KO Flt3L-derived BMDCs were pulsed with ovalbumin (500 μg/ml) or soluble CD4-Fc protein (500 μg/ml), or treated with LPS (10 μg/ml) for 4 h and analyzed by IB. (G) MEFs and BMDCs were pulsed with ovalbumin or treated with Tg (100 nM) for 4 h and analyzed by IB. Images in A, B, F, and G represent at least two similar experiments, and molecular weights represent kD; E bar graphs represent mean ± SD from three independent biological repeats. Analysis for E was performed using unpaired, two-tailed t test; *, P ≤ 0.05; **, P ≤ 0.01. Source data are available for this figure: SourceData FS1. […]

[2] = test system: IRE1α (XBP1s, pIRE1α) in BMDCs; experiment: IRE1α activation in BMDCs (immunoblot); assay type: cell-based, mouse
Procedure: Figure 1. Antigen pulsing of BMDCs activates IRE1α. (A) BMDCs were pulsed with ovalbumin (starting at 62.5 μg/ml and sequentially doubled) and analyzed by immunoblot (IB) for the indicated markers. (B) BMDCs were pulsed with ovalbumin (starting at 500 μg/ml and sequentially halved) or […] (1 μM), or stimulated with tunicamycin (1 μg/ml) or poly-I:C (25 μg/ml) for 4 h, and analyzed by IB. (C) BMDCs were pulsed with ovalbumin (500 μg/ml) for indicated time points and analyzed by IB. (D) BMDCs were pulsed for 4 h with ovalbumin or lysates derived from the indicated cell lines (500 μg/ml protein) and analyzed by IB. […] (F) Upon removal from bone marrow, total bone marrow cells were transfected with non-targeting control (NTC) or TAP1-targeting gRNAs, along with CRISPR/Cas9 delivery constructs. Cells were then subjected to standard BMDC-differentiation protocol, pulsed with ovalbumin (500 μg/ml) for 4 h, and analyzed by IB. All IB images are representative of at least two similar experiments, and molecular weights represent kD. Source data are available for this figure: SourceData F1.
For purification and differentiation of BMDCs, the femur and tibia bones of C57BL/6 mice were flushed with sterile PBS, and bone marrow cells were then cultured in RPMI1640 media as described above and further supplemented with […] β2-mercaptoethanol (Sigma-Aldrich), 20 ng/ml GM-CSF (BioLegend), and 10 ng/ml IL-4 (BioLegend) for 9 d, with media being replenished every 3 d. Where indicated, Flt3L-BMDCs were similarly generated using media supplemented with 200 ng/ml recombinant mouse Flt3L (PeproTech; [Brasel et al., 2000]). After 9 d of culture, BMDCs were routinely verified to be >90% CD11c^+ MHC-II^high by flow cytometry analysis.
Thapsigargin (Sigma-Aldrich) was used at 100 nM, tunicamycin (Sigma-Aldrich) was used at 5 μg/ml, MG132 (Sigma-Aldrich) was used at 5 μM, Amiloride (Sigma-Aldrich) was used at 10 μM, actinomycin D (Sigma-Aldrich) was used at 4 μg/ml, LPS (Sigma-Aldrich) was used at 10 μg/ml, and poly-I:C (Sigma-Aldrich) was used at 25 μg/ml. Ovalbumin (Sigma-Aldrich), EF-OVA (EndoFit; InvivoGen), […] peptide (Sigma-Aldrich), and human CD4-Fc fusion protein (generated in-house at Genentech) were dissolved in PBS prior to pulsing and used at indicated concentrations.
Cells were lysed in PBS solution supplemented with 1X radioimmunoprecipitation assay buffer (Millipore) and 2X Halt protease-phosphatase inhibitor cocktail (Thermo Fisher Scientific). Upon clearance, samples were analyzed by SDS-PAGE, electrotransferred to nitrocellulose membranes (Invitrogen), and blocked by 5% powdered milk in PBSt (PBS supplemented with 0.1% tween) solution. Development was conducted with ECL reagent (Thermo Fisher Scientific) and imaging was performed with the ChemiDoc ZRS+ imager (Bio-Rad). Antibodies used for Western blot analysis include IRE1α (3294, rabbit; Cell Signaling Technology), β-actin (5125, rabbit; Cell Signaling), GAPDH (97166, mouse; Cell Signaling), ATF6 (66563-1-Ig, mouse; ProteinTech), TAP1 (12341, rabbit; Cell Signaling), CHOP (2895, mouse; Cell Signaling), ATF4 (11815, rabbit; Cell Signaling), ovalbumin (P1-196, rabbit; Thermo Fisher Scientific), human Fc (ab977225, rabbit; Abcam), Myc tag (2272, rabbit; Cell Signaling), and biotin (5597, rabbit; Cell Signaling). IRE1α lumenal domain (mouse), XBP1s (rabbit), and pIRE1α (rabbit) antibodies were generated at Genentech. Secondary antibodies used were for mouse (715-035-150; The Jackson Laboratory) and rabbit (711-035-152; The Jackson Laboratory).

B1: ovalbumin: classical protein antigen ovalbumin (Sigma-Aldrich) (protein)
chain: MGSIGAASMEFCFDVFKELKVHHANENIFYCPIAIMSALAMVYLGAKDSTRTQINKVVRFDKLPGFGDSIEAQCGTSVNVHSSLRDILNQITKPNDVYSFSLASRLYAEERYPILPEYLQCVKELYRGGLEPINFQTAADQARELINSWVESQTNGIIRNVLQPSSVDSQTAMVLVNAIVFKGLWEKAFKDEDTQAMPFRVTEQESKPVQMMYQIGLFRVASMASEKMKILELPFASGTMSMLVLLPDEVSGLEQLESIINFEKLTEWTSSNVMEERKIKVYLPRMKMEEKYNLTSVLMAMGITDVFSSSANLSGISSAESLKISQAVHAAHAEINEAGREVVGSAEAGVDAASVSEEFRADHPFLFCIKHIATNAVLFFGRCVSP
In the case of B1, the “IRE1α activation, MyD88 KO BMDCs” value [1] is reported as “unimpeded IRE1α stimulation”, the “time of peak IRE1α phosphorylation” value ([2]; 4-h pulse, ovalbumin 500 μg/ml) is reported as 2 h and the “time of peak XBP1s protein” value ([2]; 4-h pulse, ovalbumin 500 μg/ml) is reported as 2 to 4 h. The IRE1α activation ([2]; GM-CSF + IL-4 BMDCs, immunoblot for XBP1s/pIRE1α, in words) was “concentration- and time-dependent activation of IRE1α; also recorded: much weaker IRE1α activation than did the potent pharmacological ER-stressor tunicamycin; also recorded: only IRE1α exhibited substantial activation”.
